US20090149389A1 (PURDUE RESEARCH FOUNDATION, published 2009)

Assays:
Test in all cases: cell-based or functional assay
Ret (h) = biological target: T1, Ret (h) (human (h), UniProt P07949 658-1114, limits assumed)
T1 sequence (looked up): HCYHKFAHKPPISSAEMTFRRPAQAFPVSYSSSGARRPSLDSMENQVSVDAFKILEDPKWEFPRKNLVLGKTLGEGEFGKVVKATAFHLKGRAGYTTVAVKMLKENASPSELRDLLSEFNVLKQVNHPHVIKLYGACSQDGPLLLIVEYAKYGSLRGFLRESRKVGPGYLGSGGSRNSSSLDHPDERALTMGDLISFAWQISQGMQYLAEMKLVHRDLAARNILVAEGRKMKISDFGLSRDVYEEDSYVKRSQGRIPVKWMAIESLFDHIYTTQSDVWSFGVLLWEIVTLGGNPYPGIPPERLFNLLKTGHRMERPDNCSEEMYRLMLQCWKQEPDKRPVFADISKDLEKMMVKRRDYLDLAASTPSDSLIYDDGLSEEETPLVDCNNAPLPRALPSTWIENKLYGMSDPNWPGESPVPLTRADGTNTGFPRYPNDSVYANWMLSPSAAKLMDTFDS

MKK6 (h) = biological target: T2, MKK6 (h) (human (h), UniProt P52564 1-334, limits assumed)
T2 sequence (looked up): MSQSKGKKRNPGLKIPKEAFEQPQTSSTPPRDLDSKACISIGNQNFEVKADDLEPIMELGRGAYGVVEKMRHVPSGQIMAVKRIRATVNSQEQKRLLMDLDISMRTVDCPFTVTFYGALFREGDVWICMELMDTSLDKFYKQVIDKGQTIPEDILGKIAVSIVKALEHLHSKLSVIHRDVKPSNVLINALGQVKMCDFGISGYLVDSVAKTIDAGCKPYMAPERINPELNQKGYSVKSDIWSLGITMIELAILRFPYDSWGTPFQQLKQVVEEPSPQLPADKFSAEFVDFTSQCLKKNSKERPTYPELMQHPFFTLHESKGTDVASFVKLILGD

PKG1β (h) = biological target: T3, PKG1β (h) (human (h), UniProt Q13976-2 1-686)
T3 sequence (looked up): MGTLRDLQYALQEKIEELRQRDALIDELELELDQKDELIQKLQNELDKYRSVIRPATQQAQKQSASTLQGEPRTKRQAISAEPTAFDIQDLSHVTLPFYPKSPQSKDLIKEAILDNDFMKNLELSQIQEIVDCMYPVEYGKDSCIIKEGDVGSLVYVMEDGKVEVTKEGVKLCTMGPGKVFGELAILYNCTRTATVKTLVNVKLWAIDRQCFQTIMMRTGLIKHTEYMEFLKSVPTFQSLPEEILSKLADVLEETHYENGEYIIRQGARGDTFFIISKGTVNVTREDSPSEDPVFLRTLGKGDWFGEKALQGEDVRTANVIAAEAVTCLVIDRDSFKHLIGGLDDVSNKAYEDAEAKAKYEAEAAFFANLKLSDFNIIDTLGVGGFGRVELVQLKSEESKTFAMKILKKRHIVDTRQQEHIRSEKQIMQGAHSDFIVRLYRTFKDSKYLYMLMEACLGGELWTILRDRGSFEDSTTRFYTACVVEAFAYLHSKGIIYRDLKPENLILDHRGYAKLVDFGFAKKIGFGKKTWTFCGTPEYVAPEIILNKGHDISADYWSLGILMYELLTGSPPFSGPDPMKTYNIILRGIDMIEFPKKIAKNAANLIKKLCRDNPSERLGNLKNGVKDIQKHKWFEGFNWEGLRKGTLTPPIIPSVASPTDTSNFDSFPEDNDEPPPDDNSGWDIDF

MAPKI (h) = MAPKI (h) (human (h), UniProt P28482 1-360, limits assumed)
MAPKI (h), sequence (P28482 whole entry): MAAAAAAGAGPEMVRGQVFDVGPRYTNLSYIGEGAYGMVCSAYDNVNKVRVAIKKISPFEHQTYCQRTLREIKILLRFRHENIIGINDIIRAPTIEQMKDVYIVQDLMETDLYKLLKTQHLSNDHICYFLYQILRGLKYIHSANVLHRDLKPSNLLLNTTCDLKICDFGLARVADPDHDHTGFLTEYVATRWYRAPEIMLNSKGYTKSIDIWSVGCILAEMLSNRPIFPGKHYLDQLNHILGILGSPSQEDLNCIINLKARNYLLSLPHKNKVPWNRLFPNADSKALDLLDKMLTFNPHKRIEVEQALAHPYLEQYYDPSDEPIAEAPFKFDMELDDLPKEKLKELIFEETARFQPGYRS

Pim-1 (h) = Pim-1 (h) (human (h), UniProt P11309 1-313)
Pim-1 (h), sequence (P11309 whole entry): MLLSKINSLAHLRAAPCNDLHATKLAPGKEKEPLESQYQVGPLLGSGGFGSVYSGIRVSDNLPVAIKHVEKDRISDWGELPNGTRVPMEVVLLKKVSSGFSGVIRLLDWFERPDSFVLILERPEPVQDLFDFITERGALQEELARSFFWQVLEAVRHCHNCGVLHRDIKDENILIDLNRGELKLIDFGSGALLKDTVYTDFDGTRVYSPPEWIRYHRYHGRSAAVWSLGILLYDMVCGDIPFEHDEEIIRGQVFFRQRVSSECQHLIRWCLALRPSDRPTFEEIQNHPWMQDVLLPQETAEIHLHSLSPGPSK

Met (h) = Met (h) (human (h), UniProt P08581 974-1390, limits assumed)
Met (h), sequence (P08581 974-1390 limits assumed): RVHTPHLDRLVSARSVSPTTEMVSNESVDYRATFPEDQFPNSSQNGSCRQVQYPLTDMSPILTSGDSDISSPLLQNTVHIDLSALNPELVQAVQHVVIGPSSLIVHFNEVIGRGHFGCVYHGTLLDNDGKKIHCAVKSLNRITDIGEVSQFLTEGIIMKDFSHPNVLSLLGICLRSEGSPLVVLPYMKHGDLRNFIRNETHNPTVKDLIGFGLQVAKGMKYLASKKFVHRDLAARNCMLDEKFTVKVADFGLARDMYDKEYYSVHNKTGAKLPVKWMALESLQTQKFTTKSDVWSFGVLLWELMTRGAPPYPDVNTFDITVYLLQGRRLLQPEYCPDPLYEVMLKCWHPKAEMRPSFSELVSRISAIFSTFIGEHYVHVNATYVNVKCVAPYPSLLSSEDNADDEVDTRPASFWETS

JAK3 (h) = JAK3 (h) (human (h), UniProt P52333 781-1124, limits assumed)
JAK3 (h), sequence (P52333 781-1124 limits assumed): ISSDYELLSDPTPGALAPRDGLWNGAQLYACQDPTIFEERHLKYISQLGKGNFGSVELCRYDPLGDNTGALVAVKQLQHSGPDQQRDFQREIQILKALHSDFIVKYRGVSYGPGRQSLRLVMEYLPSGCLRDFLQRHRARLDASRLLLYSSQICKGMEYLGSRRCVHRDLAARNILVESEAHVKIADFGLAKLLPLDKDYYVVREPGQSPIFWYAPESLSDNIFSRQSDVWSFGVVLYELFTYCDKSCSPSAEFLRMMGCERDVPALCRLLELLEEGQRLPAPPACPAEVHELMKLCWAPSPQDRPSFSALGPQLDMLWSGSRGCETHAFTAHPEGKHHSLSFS

CKIB (h) = CKIB (h) (human (h))
Src(1-530) (h) = Src(1-530) (h) (human (h), UniProt P12931 1-530)
ROCK-1 (h) = ROCK-1 (h) (human (h), UniProt Q13464 17-535, limits assumed)
ROCK-1 (h), sequence (Q13464 17-535 limits assumed): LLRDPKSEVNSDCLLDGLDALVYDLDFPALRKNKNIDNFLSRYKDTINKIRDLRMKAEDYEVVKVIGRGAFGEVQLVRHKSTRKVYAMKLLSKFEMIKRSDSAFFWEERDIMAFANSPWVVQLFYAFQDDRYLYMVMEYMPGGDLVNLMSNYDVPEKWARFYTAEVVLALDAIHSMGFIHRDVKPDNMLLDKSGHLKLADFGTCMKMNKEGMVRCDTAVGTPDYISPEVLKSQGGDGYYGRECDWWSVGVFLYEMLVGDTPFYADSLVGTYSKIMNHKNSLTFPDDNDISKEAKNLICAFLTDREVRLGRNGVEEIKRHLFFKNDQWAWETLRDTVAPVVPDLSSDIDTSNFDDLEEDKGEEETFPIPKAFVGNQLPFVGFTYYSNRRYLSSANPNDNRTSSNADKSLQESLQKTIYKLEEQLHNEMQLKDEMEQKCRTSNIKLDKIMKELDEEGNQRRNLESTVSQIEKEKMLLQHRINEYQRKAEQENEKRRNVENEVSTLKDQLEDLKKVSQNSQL

BTK (h) = BTK (h) (human (h), UniProt Q06187 1-659)
BTK (h), sequence (Q06187 whole entry): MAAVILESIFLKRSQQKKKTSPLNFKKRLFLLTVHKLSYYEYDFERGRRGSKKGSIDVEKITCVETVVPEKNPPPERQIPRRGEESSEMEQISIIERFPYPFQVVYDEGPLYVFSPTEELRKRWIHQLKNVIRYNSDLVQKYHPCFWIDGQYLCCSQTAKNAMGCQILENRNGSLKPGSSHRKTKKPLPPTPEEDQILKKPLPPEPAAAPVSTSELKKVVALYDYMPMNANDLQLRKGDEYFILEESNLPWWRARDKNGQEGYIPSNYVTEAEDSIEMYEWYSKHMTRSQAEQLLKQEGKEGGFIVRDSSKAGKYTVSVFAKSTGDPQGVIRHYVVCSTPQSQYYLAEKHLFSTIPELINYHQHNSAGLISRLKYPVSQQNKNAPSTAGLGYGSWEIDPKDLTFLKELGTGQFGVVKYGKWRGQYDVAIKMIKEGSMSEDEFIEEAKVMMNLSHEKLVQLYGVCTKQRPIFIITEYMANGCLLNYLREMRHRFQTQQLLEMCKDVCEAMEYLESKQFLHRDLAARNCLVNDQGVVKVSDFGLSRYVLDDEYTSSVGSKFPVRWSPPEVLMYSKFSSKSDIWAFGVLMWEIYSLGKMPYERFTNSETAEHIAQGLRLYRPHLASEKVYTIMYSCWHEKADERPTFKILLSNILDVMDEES

MAPKAP-K3 (h) = MAPKAP-K3 (h) (human (h), UniProt Q16644 1-382, limits assumed)
MAPKAP-K3 (h), sequence (Q16644 whole entry): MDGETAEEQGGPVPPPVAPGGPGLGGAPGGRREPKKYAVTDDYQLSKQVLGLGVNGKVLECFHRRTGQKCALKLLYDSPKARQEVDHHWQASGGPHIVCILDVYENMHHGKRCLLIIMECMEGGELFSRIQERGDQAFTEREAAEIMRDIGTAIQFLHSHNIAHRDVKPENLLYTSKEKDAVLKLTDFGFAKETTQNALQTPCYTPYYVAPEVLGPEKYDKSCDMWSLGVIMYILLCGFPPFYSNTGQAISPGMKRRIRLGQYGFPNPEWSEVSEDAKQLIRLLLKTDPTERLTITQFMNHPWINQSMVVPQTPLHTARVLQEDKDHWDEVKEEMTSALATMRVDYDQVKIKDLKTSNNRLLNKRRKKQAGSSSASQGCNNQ

L1MK1 (h) = L1MK1 (h) (human (h), UniProt P53667 285-638, limits assumed)
L1MK1 (h), sequence (P53667 285-638 limits assumed): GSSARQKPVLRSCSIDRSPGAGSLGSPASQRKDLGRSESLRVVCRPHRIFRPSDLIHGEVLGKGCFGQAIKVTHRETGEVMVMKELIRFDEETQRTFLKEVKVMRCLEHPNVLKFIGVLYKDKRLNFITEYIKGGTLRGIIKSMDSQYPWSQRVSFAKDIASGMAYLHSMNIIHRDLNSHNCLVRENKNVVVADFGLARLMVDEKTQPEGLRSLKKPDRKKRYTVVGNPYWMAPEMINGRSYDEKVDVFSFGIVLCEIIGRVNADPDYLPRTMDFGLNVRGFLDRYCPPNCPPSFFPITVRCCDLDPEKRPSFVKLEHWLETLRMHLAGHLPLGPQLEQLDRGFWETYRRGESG

Syk (h) = Syk (h) (human (h), UniProt P43405 1-635)
JNK1α1 (h) = JNK1α1 (h) (human (h), UniProt P45983-2 1-384)
JNK1α1 (h), sequence (P45983 other isoform, or with tags, fused parts or gaps limits assumed): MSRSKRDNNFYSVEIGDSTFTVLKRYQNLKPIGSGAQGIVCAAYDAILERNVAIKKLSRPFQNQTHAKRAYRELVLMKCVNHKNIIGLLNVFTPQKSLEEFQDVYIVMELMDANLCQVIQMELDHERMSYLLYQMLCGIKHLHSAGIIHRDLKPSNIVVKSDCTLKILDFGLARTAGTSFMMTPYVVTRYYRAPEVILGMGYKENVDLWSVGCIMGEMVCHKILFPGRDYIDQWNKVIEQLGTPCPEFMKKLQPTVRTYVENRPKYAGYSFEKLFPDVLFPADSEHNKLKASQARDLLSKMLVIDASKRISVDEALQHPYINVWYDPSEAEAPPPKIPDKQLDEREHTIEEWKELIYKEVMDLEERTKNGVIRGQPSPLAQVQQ

CK2 (h) = CK2 (h) (human (h), UniProt P68400 1-391)
CK2 (h), sequence (P68400 whole entry): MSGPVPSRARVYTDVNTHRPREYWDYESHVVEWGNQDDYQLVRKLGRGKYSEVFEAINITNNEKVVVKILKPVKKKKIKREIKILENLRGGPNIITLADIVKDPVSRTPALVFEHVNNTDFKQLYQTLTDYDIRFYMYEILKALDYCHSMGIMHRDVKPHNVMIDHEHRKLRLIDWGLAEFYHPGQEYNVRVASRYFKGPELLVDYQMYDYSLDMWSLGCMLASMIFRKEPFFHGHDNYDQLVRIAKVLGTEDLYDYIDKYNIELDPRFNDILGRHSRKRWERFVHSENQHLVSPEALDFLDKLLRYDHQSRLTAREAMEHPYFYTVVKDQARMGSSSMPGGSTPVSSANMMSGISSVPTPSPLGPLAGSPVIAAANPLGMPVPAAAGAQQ

AMPK (r) = AMPK (r) (rat (r), UniProt Q09137 1-552, limits assumed)
AMPK (r), sequence (Q09137 whole entry): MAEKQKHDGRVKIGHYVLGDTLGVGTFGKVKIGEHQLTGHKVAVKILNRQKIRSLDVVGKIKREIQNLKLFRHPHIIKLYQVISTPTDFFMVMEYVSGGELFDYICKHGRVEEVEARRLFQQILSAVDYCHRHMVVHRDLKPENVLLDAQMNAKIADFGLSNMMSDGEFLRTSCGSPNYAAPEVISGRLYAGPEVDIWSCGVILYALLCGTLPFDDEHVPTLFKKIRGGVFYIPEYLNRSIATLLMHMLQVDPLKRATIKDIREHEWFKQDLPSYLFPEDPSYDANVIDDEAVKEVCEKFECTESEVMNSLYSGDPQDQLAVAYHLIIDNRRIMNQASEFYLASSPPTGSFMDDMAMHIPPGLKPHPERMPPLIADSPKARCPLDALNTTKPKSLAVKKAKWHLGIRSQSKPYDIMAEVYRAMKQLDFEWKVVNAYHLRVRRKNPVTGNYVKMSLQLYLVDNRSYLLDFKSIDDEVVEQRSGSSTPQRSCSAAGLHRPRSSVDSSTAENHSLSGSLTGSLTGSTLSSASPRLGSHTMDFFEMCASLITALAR

KAFAKLAARLYRKALARQLGVAA
Profile-1 @ = 100 µm (kinase profiler assay) (Ret (h)): 117 | Profile-1 @ = 100 µm (kinase profiler assay) (MKK6 (h)): 48 | Profile-1 @ = 100 µm (kinase profiler assay) (PKG1β (h)): 24 | Profile-1 @ = 100 µm (kinase profiler assay) (MAPKI (h)): 108 | Profile-1 @ = 100 µm (kinase profiler assay) (Pim-1 (h)): 1 | Profile-1 @ = 100 µm (kinase profiler assay) (Met (h)): 22 | Profile-1 @ = 100 µm (kinase profiler assay) (JAK3 (h)): 91 | Profile-1 @ = 100 µm (kinase profiler assay) (CKIB (h)): 97 | Profile-1 @ = 100 µm (kinase profiler assay) (Src(1-530) (h)): 3 | Profile-1 @ = 100 µm (kinase profiler assay) (ROCK-1 (h)): 29 | Profile-1 @ = 100 µm (kinase profiler assay) (BTK (h)): 16 | Profile-1 @ = 100 µm (kinase profiler assay) (MAPKAP-K3 (h)): 17 | Profile-1 @ = 100 µm (kinase profiler assay) (L1MK1 (h)): 93 | Profile-1 @ = 100 µm (kinase profiler assay) (Syk (h)): 4 | Profile-1 @ = 100 µm (kinase profiler assay) (JNK1α1 (h)): 92 | Profile-1 @ = 100 µm (kinase profiler assay) (CK2 (h)): 79 | Profile-1 @ = 100 µm (kinase profiler assay) (AMPK (r)): 118
